Results: the supplement of paper PMC9112550, “Optimization of the antimicrobial peptide Bac7 by deep mutational scanning” (BMC Biology, 2022)

Tested on: Escherichia coli TOP10
Experiment: shrunken log2 fold change of peptide-encoding DNA abundance (4.5 h post-induction vs induction); higher = less antimicrobial activity (less host growth inhibition)
Conditions: time post-induction: 4.5 h; library: site-saturation at positions 5, 18, 19, 20
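Further: peptides expressed intracellularly from a pBAD plasmid library in pooled LB shake-flask culture, induced with 0.3% L-arabinose, DNA abundance read by NGS, three biological replicates, DESeq2 with apeglm shrinkage.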

Sequence	shrunken log2 fold change
RRIRTRPPRLPRPRPRPFTVPRP	-0.00127
RRIRTRPPRLPRPRPRPFVHPRP	-0.138
RRIRTRPPRLPRPRPRPFWQPRP	0.0872
RRIRTRPPRLPRPRPRPFYGPRP	-0.473
RRIRTRPPRLPRPRPRPGCWPRP	0.453
RRIRTRPPRLPRPRPRPGDFPRP	-0.093
RRIRTRPPRLPRPRPRPGDYPRP	0.142
RRIRTRPPRLPRPRPRPGEVPRP	0.211
RRIRTRPPRLPRPRPRPGGVPRP	0.346
RRIRTRPPRLPRPRPRPGGYPRP	-0.0912
RRIRTRPPRLPRPRPRPGHKPRP	-0.106
RRIRTRPPRLPRPRPRPGHPPRP	0.09
RRIRTRPPRLPRPRPRPGHVPRP	-0.144
RRIRTRPPRLPRPRPRPGMEPRP	0.013
RRIRTRPPRLPRPRPRPGMPPRP	-0.0497
RRIRTRPPRLPRPRPRPGMRPRP	0.744
RRIRTRPPRLPRPRPRPGPSPRP	0.438
RRIRTRPPRLPRPRPRPGQMPRP	0.0303
RRIRTRPPRLPRPRPRPGRCPRP	0.178
RRIRTRPPRLPRPRPRPGRHPRP	0.0235
RRIRTRPPRLPRPRPRPGRKPRP	0.282
RRIRTRPPRLPRPRPRPGVEPRP	-0.0469
RRIRTRPPRLPRPRPRPGWDPRP	0.129
RRIRTRPPRLPRPRPRPHAYPRP	-0.635
RRIRTRPPRLPRPRPRPHCDPRP	-0.0828

Sequence	shrunken log2 fold change
RRIRTRPPRLPRPRPRPHDRPRP	-0.00195
RRIRTRPPRLPRPRPRPHDYPRP	-0.196
RRIRTRPPRLPRPRPRPHEAPRP	-0.0062
RRIRTRPPRLPRPRPRPHEFPRP	-0.175
RRIRTRPPRLPRPRPRPHERPRP	0.594
RRIRTRPPRLPRPRPRPHGAPRP	-0.0597
RRIRTRPPRLPRPRPRPHHDPRP	-0.469
RRIRTRPPRLPRPRPRPHHNPRP	-0.795
RRIRTRPPRLPRPRPRPHIEPRP	-0.0284
RRIRTRPPRLPRPRPRPHKKPRP	0.0809
RRIRTRPPRLPRPRPRPHLLPRP	-0.411
RRIRTRPPRLPRPRPRPHLYPRP	-0.154
RRIRTRPPRLPRPRPRPHMEPRP	0.0103
RRIRTRPPRLPRPRPRPHMNPRP	-0.547
RRIRTRPPRLPRPRPRPHMVPRP	0.00159
RRIRTRPPRLPRPRPRPHNCPRP	-0.113
RRIRTRPPRLPRPRPRPHRMPRP	-0.267
RRIRTRPPRLPRPRPRPHRWPRP	-0.254
RRIRTRPPRLPRPRPRPHSCPRP	-0.0159
RRIRTRPPRLPRPRPRPHSEPRP	-0.0681
RRIRTRPPRLPRPRPRPHTYPRP	-0.296
RRIRTRPPRLPRPRPRPHVCPRP	-0.04
RRIRTRPPRLPRPRPRPHWHPRP	-0.576
RRIRTRPPRLPRPRPRPHYFPRP	-0.914
RRIRTRPPRLPRPRPRPIAGPRP	-0.16

Sequence	shrunken log2 fold change
RRIRTRPPRLPRPRPRPICTPRP	0.409
RRIRTRPPRLPRPRPRPIDRPRP	-0.148
RRIRTRPPRLPRPRPRPIDVPRP	-0.0217
RRIRTRPPRLPRPRPRPIEKPRP	-0.478
RRIRTRPPRLPRPRPRPIFWPRP	0.85
RRIRTRPPRLPRPRPRPIFYPRP	-0.315
RRIRTRPPRLPRPRPRPIGSPRP	0.0344
RRIRTRPPRLPRPRPRPIHAPRP	-0.0176
RRIRTRPPRLPRPRPRPIHLPRP	0.0312
RRIRTRPPRLPRPRPRPIHQPRP	0.0323
RRIRTRPPRLPRPRPRPIIRPRP	-0.0034
RRIRTRPPRLPRPRPRPIKVPRP	0.0474
RRIRTRPPRLPRPRPRPILHPRP	-0.324
RRIRTRPPRLPRPRPRPILIPRP	-0.485
RRIRTRPPRLPRPRPRPIMCPRP	-0.255
RRIRTRPPRLPRPRPRPINRPRP	0.028
RRIRTRPPRLPRPRPRPINTPRP	-0.687
RRIRTRPPRLPRPRPRPIPAPRP	0.0613
RRIRTRPPRLPRPRPRPIPQPRP	0.284
RRIRTRPPRLPRPRPRPIQYPRP	-0.044
RRIRTRPPRLPRPRPRPIRFPRP	-0.0183
RRIRTRPPRLPRPRPRPIRPPRP	0.122
RRIRTRPPRLPRPRPRPISYPRP	0.061
RRIRTRPPRLPRPRPRPITNPRP	-0.489
RRIRTRPPRLPRPRPRPIVGPRP	-0.0587

Sequence	shrunken log2 fold change
RRIRTRPPRLPRPRPRPIWDPRP	-0.414
RRIRTRPPRLPRPRPRPIWHPRP	0.12
RRIRTRPPRLPRPRPRPIWPPRP	0.173
RRIRTRPPRLPRPRPRPIYHPRP	-0.191
RRIRTRPPRLPRPRPRPKCQPRP	-0.144
RRIRTRPPRLPRPRPRPKEVPRP	-0.0117
RRIRTRPPRLPRPRPRPKFGPRP	-0.00436
RRIRTRPPRLPRPRPRPKFKPRP	-0.225
RRIRTRPPRLPRPRPRPKFLPRP	0.0687
RRIRTRPPRLPRPRPRPKHKPRP	-0.185
RRIRTRPPRLPRPRPRPKHNPRP	-0.362
RRIRTRPPRLPRPRPRPKIGPRP	-0.0689
RRIRTRPPRLPRPRPRPKINPRP	-0.325
RRIRTRPPRLPRPRPRPKKHPRP	-0.265
RRIRTRPPRLPRPRPRPKKSPRP	-0.106
RRIRTRPPRLPRPRPRPKLEPRP	-0.0598
RRIRTRPPRLPRPRPRPKMPPRP	0.158
RRIRTRPPRLPRPRPRPKNIPRP	-0.627
RRIRTRPPRLPRPRPRPKNSPRP	-0.438
RRIRTRPPRLPRPRPRPKPFPRP	0.122
RRIRTRPPRLPRPRPRPKPTPRP	0.0943
RRIRTRPPRLPRPRPRPKQGPRP	0.0588
RRIRTRPPRLPRPRPRPKQHPRP	0.119
RRIRTRPPRLPRPRPRPKRYPRP	-0.154
RRIRTRPPRLPRPRPRPKSCPRP	-0.0893

Sequence	shrunken log2 fold change
RRIRTRPPRLPRPRPRPKSMPRP	-0.62
RRIRTRPPRLPRPRPRPKTEPRP	0.0183
RRIRTRPPRLPRPRPRPKTKPRP	-0.212
RRIRTRPPRLPRPRPRPKTLPRP	0.0791
RRIRTRPPRLPRPRPRPKTMPRP	-0.0972
RRIRTRPPRLPRPRPRPKTNPRP	-0.157
RRIRTRPPRLPRPRPRPKVPPRP	-0.0154
RRIRTRPPRLPRPRPRPKWGPRP	0.118
RRIRTRPPRLPRPRPRPKWIPRP	-0.232
RRIRTRPPRLPRPRPRPLASPRP	0.125
RRIRTRPPRLPRPRPRPLDLPRP	0.0209
RRIRTRPPRLPRPRPRPLDPPRP	-0.382
RRIRTRPPRLPRPRPRPLFLPRP	-0.184
RRIRTRPPRLPRPRPRPLHCPRP	-0.148
RRIRTRPPRLPRPRPRPLIMPRP	-0.718
RRIRTRPPRLPRPRPRPLKAPRP	0.0363
RRIRTRPPRLPRPRPRPLLAPRP	0.282
RRIRTRPPRLPRPRPRPLLQPRP	0.173
RRIRTRPPRLPRPRPRPLLYPRP	-0.444
RRIRTRPPRLPRPRPRPLMGPRP	0.0521
RRIRTRPPRLPRPRPRPLMVPRP	-0.32
RRIRTRPPRLPRPRPRPLNGPRP	-0.235
RRIRTRPPRLPRPRPRPLQFPRP	-0.497
RRIRTRPPRLPRPRPRPLRAPRP	1.05
RRIRTRPPRLPRPRPRPLRSPRP	0.387

Sequence	shrunken log2 fold change
RRIRTRPPRLPRPRPRPLSTPRP	-0.386
RRIRTRPPRLPRPRPRPLWYPRP	-0.245
RRIRTRPPRLPRPRPRPLYEPRP	-0.774
RRIRTRPPRLPRPRPRPLYFPRP	-0.418
RRIRTRPPRLPRPRPRPLYVPRP	-0.4
RRIRTRPPRLPRPRPRPMAKPRP	0.0153
RRIRTRPPRLPRPRPRPMFGPRP	0.115
RRIRTRPPRLPRPRPRPMFLPRP	-0.593
RRIRTRPPRLPRPRPRPMFTPRP	-0.253
RRIRTRPPRLPRPRPRPMHLPRP	-0.318
RRIRTRPPRLPRPRPRPMIGPRP	-0.107
RRIRTRPPRLPRPRPRPMIMPRP	-0.437
RRIRTRPPRLPRPRPRPMKTPRP	0.0208
RRIRTRPPRLPRPRPRPMLTPRP	0.21
RRIRTRPPRLPRPRPRPMNAPRP	0.194
RRIRTRPPRLPRPRPRPMNHPRP	-0.0849
RRIRTRPPRLPRPRPRPMNQPRP	-0.941
RRIRTRPPRLPRPRPRPMNSPRP	-0.191
RRIRTRPPRLPRPRPRPMQVPRP	-0.21
RRIRTRPPRLPRPRPRPMSKPRP	-0.0499
RRIRTRPPRLPRPRPRPMSTPRP	-0.0153
RRIRTRPPRLPRPRPRPMTWPRP	0.0637
RRIRTRPPRLPRPRPRPMVMPRP	-0.0384
RRIRTRPPRLPRPRPRPMWDPRP	0.00971
RRIRTRPPRLPRPRPRPMWLPRP	-0.0194
